From patent US7005415B1

Target: FGF-1a produced in E. coli (human) (UniProt P05230)
Conditions: scale: % band intensity remaining after 0.01% trypsin

Substance trypsin (enzyme) has an intensity of the remaining band after trypsin treatment (SDS-denatured electrophoresis, blot) of 6.
